{
  "source": "paper PMC11233879",
  "about": "“JrPHL8-JrWRKY4-JrSTH2L module regulates resistance to Colletotrichum gloeosporioides in walnut”",
  "binders": {"B1": {"name": "proJrSTH2L-Wbox (dsDNA)", "DNA 1": "AACCTAAACCCTTTGTGAAGTTGACCAGATCCTCAACCCGGGATGG", "DNA 2": "CCATCCCGGGTTGAGGATCTGGTCAACTTCACAAAGGGTTTAGGTT"}, "B2": {"name": "proJrWRKY4-MBS (dsDNA)", "DNA 1": "TTCACTATTACTGATATTCTCAACAGAAAAATGTCTAAGAGACAAT", "DNA 2": "ATTGTCTCTTAGACATTTTTCTGTTGAGAATATCAGTAATAGTGAA"}},
  "key": {"JrWRKY4": {"target": "JrWRKY4 (walnut (Juglans)?, UniProt A0A2I4E3K4 1-517)", "sequence (A0A2I4E3K4 entry or part of it)": "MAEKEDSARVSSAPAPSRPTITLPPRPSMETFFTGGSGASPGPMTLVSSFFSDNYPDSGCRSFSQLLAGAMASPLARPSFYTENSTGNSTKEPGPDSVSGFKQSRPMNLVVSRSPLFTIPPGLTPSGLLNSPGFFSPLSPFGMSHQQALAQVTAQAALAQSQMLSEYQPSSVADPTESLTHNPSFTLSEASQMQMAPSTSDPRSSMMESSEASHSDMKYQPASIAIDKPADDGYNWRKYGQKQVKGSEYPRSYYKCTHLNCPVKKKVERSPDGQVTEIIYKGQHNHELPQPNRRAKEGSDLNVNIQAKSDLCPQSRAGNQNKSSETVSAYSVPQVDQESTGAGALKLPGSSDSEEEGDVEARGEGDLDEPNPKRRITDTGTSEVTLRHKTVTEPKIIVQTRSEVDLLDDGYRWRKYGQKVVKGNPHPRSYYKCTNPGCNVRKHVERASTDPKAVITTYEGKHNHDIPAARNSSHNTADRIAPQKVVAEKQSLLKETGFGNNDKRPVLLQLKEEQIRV", "experiment": "EMSA; LightShift Chemiluminescent EMSA Kit (Beyotime); cold probe 100-fold; buffer, salt, pH and temperature not stated", "settings": "protein: recombinant; tags: pET32a fusion (Trx-His; article states His-tagged); label: biotin; blunt"}, "JrPHL8": {"target": "T1, JrPHL8 (walnut (Juglans)?, UniProt A0A2I4DJV4 1-356)", "T1 sequence": "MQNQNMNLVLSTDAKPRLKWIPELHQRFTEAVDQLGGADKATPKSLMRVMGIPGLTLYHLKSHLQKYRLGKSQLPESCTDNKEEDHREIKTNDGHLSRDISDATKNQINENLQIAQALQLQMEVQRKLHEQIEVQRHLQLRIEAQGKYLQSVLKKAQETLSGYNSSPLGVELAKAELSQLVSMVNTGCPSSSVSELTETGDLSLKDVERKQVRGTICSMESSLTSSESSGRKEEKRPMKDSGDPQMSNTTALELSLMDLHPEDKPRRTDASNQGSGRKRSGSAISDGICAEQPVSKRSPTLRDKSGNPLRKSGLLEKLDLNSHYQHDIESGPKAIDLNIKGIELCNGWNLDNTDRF", "experiment": "EMSA; LightShift Chemiluminescent EMSA Kit (Beyotime); cold probe 100-fold; buffer, salt, pH and temperature not stated", "settings": "protein: recombinant; tags: His (pET32a fusion); chain copies: 2; label: biotin; blunt"}},
  "data": [
    {"binder": "B1", "values": [
      {"measurement": "binding result", "setting": "JrWRKY4", "value": "binds"}
    ]},
    {"binder": "B2", "values": [
      {"measurement": "binding result", "setting": "JrPHL8", "value": "binds"}
    ]}
  ]
}
